Source: the domain aggregation screens of Martell et al. (2025)

Test: soluble fraction after stress (log2 fold change); higher = more stays soluble; pooled small domains, quantitative proteomics
Conditions: stress: 50 degC
Outline: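 The stress applied to every library was 50°C. These custom libraries of small protein domains were pooled and measured at high throughput with quantitative proteomics as the read-out. Aggregation propensity is expressed as the base-two logarithm of the fold change in how much of each protein remains soluble. The higher the value, the more of that protein stays in solution.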

Sequence	soluble fraction (log2)
HMKTVPNVEGEKDGTAQSAIESAGLKVGKVTYQYDDNTSKGLVISQSVKGGEKVKPNTAIDLVVSNGPK	0.0173
HMSQDEKITNYIYEGNKNTQTEAFVEAEKSYRKALSLSPEKPEALYNLGNTHFLDKQYDEASQRFF	0.0647
HMDSIGTQIRKLREEAEMPLRKLSALLDIDQSTLSKIERDERRANTQMIEQIAKIFKVNKEQLLVA	-0.926
HMVLQHHTATKALSYHTSASASAAVKGSFARGDSVQVVQGGSQTADGAKWHKVKVGSSYYYAAAEHLTP	≥ 0.62
HMEIPMRDKLKTYIDYLFAGAPQTAATAETKAEILQNTLDKYDDLIAEGKTPEAAYSLAVSGIGDLGDF	-0.0827
HMRVPQWLVDKIAAAGIDTHRSGPALKALAAKAGTPEQLDQAIARAKALRRRTGSTQSLNVGLLGSILEGT	-0.106
HMATVHVDGIQYDFSSPEQAKEFAYKWAKKHNLTWEVHGETIHIK	-0.0845
HMGWVMLVIMSRGASEAQINAVVEKIRAAGLTEHLSKGIERTIIGAIGEERKLEPEVFELLPGVEQALHIV	-0.342
HMQEAGLITQRIREMREKENWTQEYMAEQLGMSENGYAKIERGESNLSLKRLQQIADIFEVESAELLK	0.0493
HMSNSMISKDKAMSIALAKVSGATSSNIYIELEKDDGRYTYEGEINFNNKEYEFEIDAYTGNILKWEVDSI	-0.333
HMDKLSYALGLSMGHNFLGSGIKSLNVEDFAKGVEAVYKQEKPEISFDEAKKIINEFFSNLQDEIAE	-0.628
HMLTAPMPGIVTEILVKEGQRVRSGQPLMILEAMKMEHQVTAPKSGQIEKIYFSEGEKVDMGSDLLSIS	0.181
HMALIGSNLRHLRNERKLSQQELADLIRVGRTTIANIEANLANPGHKTLLEIVKVFDITIDELLHTDLTK	-0.886
HMGNKWKPIILYLLSNGSMRFGMLNALIPTISKKVLTNQLKELENDGLLLRQSFAEIPPRVEYSLTEKA	-1.58
HMSESAGKALDILFYLARVEDEVSLARLSKETGMNKATALRYLAVLESWGVVEKRPSGWSLGLSLFELGSK	-2.13
HMGSQELIQLGERIRQKRKDSHLTQETFAEKAGISVNTVSRIEGGQAAMSIEIFAKLVEILDADANELLG	-1.14
HMNMDLGHSISKLRTDANLTQEKFAQILNVSRQTVQKWEYGEALPDIHNIIKIAKFFNISLDALVLRS	-0.159
HMEFDSLINYEVKKKETLFSISKKFKIEINDLLSFNTELKNNKLKKNSIIIIPLKKKIVESQNFEKQKIID	-1.37
HMSENKIMEIVQDLAREKSVILISHRLANVTAADKILYMEQGKIAESGTHEQLMAQNKAYAALFNKQQEL	-0.11
HMPDPHSEARNIVLNQLNFMPRSRKELETALAKRNIEADVAKIVLDRFEEIGMVDDAAYAEL	0.159
HMDGVSLLFKLMETLPEQQKTILHLRDVEQLEFAEIAKITNTSQANVRVALSRARKKIKDLLLKQY	-2.17
HMIKYTIEELGELTGFTRRTIRYYVQEGLIDPPAGRGRGGFYYDSHVQQLLRIKSFQEKGIGITAMVSLM	-2.51
HMDNEVTIAVQVNGKLRDKLIVALDTPNEKIEQLALALPKVIQNTSGLTVRKVIVIPNRLVNIVA	-0.171

Sequence	soluble fraction (log2)
HMDEAAGVLTQLRAFIAASNLSPGLRLPPERELAEQLGVTRAELRKALAVLEAEGLLWRQVGKGTFYGARP	-0.481
HMVSVLDHIVGIGAKRRQSLWNHFGTIDKIKAASIDELLKAPGMNRPSAEAVYYFFEAQRQLRGK	-0.744
HMEQAAQPQTGFDPRRLKAGDAVHLLALDQRGVLLEDPKPGAESAPVSVGVAGVRVVVPLREMEALPAG	0.157
HMLMKPQKTRDVLRYLKSIGWVRLRGGQGSHEIWGLPDGSIRAVIPAGHREISAGVLMQLKRAGVDVPTQW	-0.557
HMVSRKIENPYWANKEKQHIIAEFFYPDTNKRVTASIMNDGSNRDYEEILRGYSIEQIDANTNRRLEER	0.436
HMRDADRYAFMQENVEDFAKDMRRKHMTYDVLYEEYIRRTDNPYGYTQFKAIVQEYEKNHDYK	-0.141
HMHQKELLNLSYKEAKRYILDDFERVFFTNLLRKTGGNVSRAAQLAQVHRKNLYVKLTELGIDPRQFG	-1.43
HMDEVHYLADKERGTTWEEILIHADRDIKFLSLSATINNKNEFLEWLVSLRGTTSLIHSSTRPIPLEI	0.218
HMIYYTEEELVKRYIDFSNYLGKKEGASDVDFKKYAVEFGIPSRDHYNRKFITLFNLKIKAGYKPIRH	-0.763
HMGFYDLFINLADKVGSLADVTQILAEARINLVNVHILEIREEIDGIAQLTFSSEKDRQKALELLKTKYK	-1.33
HMDGIPVPDVKGTVEAEATATLKNSGFEVTKTQDFSDTVEAGKVISQNPAGGSSAASGSSVTLVISQGPN	0.0569
HMLEINTIIGNNLKKIRQEKKLTLDELAGITGVSKGMLSQIEKGTTNPTINTIWKISNGLNVPYTYLLEDD	0.183
HMGIDVSAFSDTALEVLRLQAAGYTTREIAQQLHITQRTVKYHASENYRKLDARNLVDAVQIAQSLHI	-1.41
HMKGISRVTMELIIDALKKETEPRTVQWIAEKTGLATQTTYRYLQYMVSEQTVEALNVYGKVVSLKAK	-0.314
HMNIKYDFPTNSPLEMMRNLFDSNSQIINDLKDGFAMANSLNEQGLANFFAERIDKHQFWSWQLSASL	-0.399
HMNFHLEHHIAELLYRSIRGELSDFERQELNQWRSDSPMHETLFMRLQDDEYIDEELGVFIK	-1.99
HMAEVIYGAGKTPAQMLGILRTMQAHGQKTVLITRLREEAAEEIGREIPLQYDKTAGVGIVGTLPQPDG	-0.0493
HMIDIIEYIISEESKGLRADQGIALQNPQYSRSLIQKWIKKGSVLVNNKIIRTKEILLEGDKISITPEENI	-0.384
HMSPSDLSAEAQKVYALLDGRELSFDTLVEESGFDTGSLLAILMRLEMKMLVEHGADQVYRRSG	-0.58
HMDREILWTNYVAARKQEFIASSIDTIGAEYLDNRRFWDTQFEREWTIIAERLASGFGLTDDILSIVGSDF	-4.12
HMNQIDDADRKRVVDEVAGQFSSMSLTEMRSDREKLLSRIIPQVQTTLNRLGLQTIDVEGIAREVIARVG	0.159
HMNPLPALLRYFRQKAGLTQQDVAAALSISRSGYANYEEGRNIPNIEQAIKLSELLNHDFLYAYTLSS	-1.99
HMIPEKEISYMMPDGFMPKELKIIHITESGRKQIYSAAHKPLDLVNVKAPFVPNTKVQIYINDVPIEELKI	-0.418

Sequence	soluble fraction (log2)
HMTAVVPNFKGKLISELSNFVADKNVRYTIIDSIYDPEEKSGIVIKQDPEEKTQVKHNRIIYLYVTST	-1.53
HMNREIVVYITGAVDNPGLYRLPLDSRLDDVLKLAVLSTNADREVLNPAQKLKDGQKIVVPYIVE	-0.111
HMAVTEVKTTAVVNMRSSDSEKADKLGKAQIGDTFRVLEQRANGWTKLTDGTQEFFIKSEYLEAIA	0.0956
HMFDITKEVLKQSGLYNLYKNDESLEGINRIQNIEELLNGIKDFVENNEKSQASVSSFLQDVALATDQ	0.126
HMEIGNVIAKLRVSNGLNQREFAKKLEVSNGAVAMWETNKRQPDLEMIKKISNLFDVPTDYILGAGTFQ	-0.458
HMLAGVDTLADRELEVFQMLGRGKSTKEIAQVLNLGESTVETYRARIKEKLQLRSAAELYLRAGQWVRDHG	-0.184
HMQIMVVDEADRMLDMGFIPDIERIFQLTPFTRQTLFFSATMAPEIERITDTFLHSPERIEVAR	-0.288
HMKDYKTIFQELIQKKHKTSPIYKSYEYNDMFKAEVYVNDKSFADGIGKSKKEAETDAAKKALEKIEMA	0.0966
HMAVANEAIANINMKEVKQAIHNLPEIFKNPFLLYFDGYKYHEIAEMLDEPLGTIKSRIHFARKLLKSHI	-0.674
HMAVPAALVQAWLELSRRMVAGTQDVGERFAEEARKMHYGETEDRGIRGQATLTEVRDLLDEGIEVLPLLL	-0.392
HMLDSGNPILPYKLSLLANVDIRTVRNAISAGELVAFKSEFDGEVYVENGSARRWLHGRRGFKPTLK	-0.84
HMNPETIHNDYKAFIKFAFSGLSYYSKVWNQNREMITPGLLETLWQKYRHLSIGEIETILEKIIKEG	-1.88
HMEAEMLYQVKVKITNLVIRSGAGAIYPIVKRYASGVLPIYEEKNGYGKIAVGQWISLSPEFVERVD	-0.385
HMSDDSYLVALAEAYKNATSWDIRRQVLSIMTGVSSYKEISRYIPGLTQYRLSISNLHRLQYGRAAPVP	0.0583
HMGNLASGAYEQIKRRILSLEYLPGSILQERGLAEELGISRTPVREAIHRLSQEGWLKINSRKNIRVR	-1.98
HMSYEDLIQAVSGHFGIEIRALLSEDRKKENMIPRQVAMYLLKNKLHYTYERIGNIFSGRNHTAVMYSV	-0.193
HMSVERIEPPLPLIDTLLALRDALERPLSREENAFLSRRFAGGATRAQIDALAAQFRGAAAAESKV	0.104
HMGMGIGQIIKEKRTALKMTQNELAERLGVSQQSVTGWENNAAVPRESAVRGMMDIFGLSRNELFGEP	0.331
HMVVEGMQFDRGYLSQYMVTDNEKMVADLENPYILITDKKISNIQEILPLLESILQSSRPLLIIADD	-0.214
HMIGKDLLGYEVFSESGDLVGILKDVMWLPHSDVYVITNGGKELLIPVIPEVVKGINHEQGVIVISPM	0.0196
HMGRWQPSTSAKQHGESALLLERLLHLERLTVSEAFHVLTINHRLNLSLPEYRSLLAVVQLPK	-1.57
HMLQQNRAVEAEQLARKGLSYAQSNIQQAALWRLVAEATEQQGKVDAALNAKNKAMQLEMAG	0.173
